Measurements published in PMC3863716.
Like-named read-outs stand apart in the source and are kept apart here.

Experiments:
[1] = tested on: CCCCCCCCCCCCCC(=O)SCCNC(=O)CCNC(=O)[C@H](O)C(C)(C)COP(=O)(O)OP(=O)(O)OC[C@H]1O[C@@H](n2cnc3c(N)ncnc32)[C@H](O)[C@@H]1OP(=O)(O)O; assay: purified protein
purified protein = substrate: CCCCCCCCCCCCCC(=O)SCCNC(=O)CCNC(=O)[C@H](O)C(C)(C)COP(=O)(O)OP(=O)(O)OC[C@H]1O[C@@H](n2cnc3c(N)ncnc32)[C@H](O)[C@@H]1OP(=O)(O)O; assay: purified protein; remark: listed apart in the source

human NMT1 (Homo sapiens) showed a Km [1] of 8.24 ± 0.62 µM.

B1: human NMT2 (Homo sapiens) (protein)
chain: AKHRYQFWDTQPVPKLDEVITSHGAIEPDKDNVRQEPYSLPQGFMWDTLDLSDAEVLKELYTLLNENYVEDDDNMFRFDYSPEFLLWALRPPGWLLQWHCGVRVSSNKKLVGFISAIPANIRIYDSVKKMVEINFLCVHKKLRSKRVAPVLIREITRRVNLEGIFQAVYTAGVVLPKPIATCRYWHRSLNPRKLVEVKFSHLSRNMTLQRTMKLYRLPDVTKTSGLRPMEPKDIKSVRELINTYLKQFHLAPVMDEEEVAHWFLPREHIIDTFVVESPNGKLTDFLSFYTLPSTVMHHPAHKSLKAAYSFYNIHTETPLLDLMSDALILAKSKGFDVFNALDLMENKTFLEKLKFGIGDGNLQYYLYNWRCPGTDSEKVGLVLQ
With B1 the Km (purified protein) was 7.24 ± 0.79 µM.
